{"source": "the RNAGym collection of RNA variant scans (doi:10.1073/pnas.2313332121)", "parents": {"B1": {"name": "TPR t1 (parent)", "chain": "GACCAAUCUGCCCUCAGAGCUCGAGAACAUCUUCGGAUGCAGAGGAGGCAGGCUUCGGUGGCGCGAUAGCGCCAACGUCCUCAACCUCCAAUGCAUCCCACCACAUGAUGAUGCCUGAAGAGCCUUGGUUUUUUG"}}}
{"variants_of": "B1", "test": "polymerase ribozyme fitness, log enrichment relative to wild type (log ratio); higher = more active; in vitro selection for triplet polymerase activity", "summary_of_the_method": "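Mutant libraries for each subunit of a heterodimeric triplet polymerase ribozyme were made by PCR and then transcribed. Each library underwent one round of in vitro selection in triplicate: annealing with a biotinylated primer, the partner subunit and triplets, frozen incubation at −7 °C, gel excision of extended constructs, streptavidin-bead capture and RT-PCR. Input and output libraries were Illumina-sequenced, and only genotypes with ≥10 input reads and ≥1 read per output were kept. Fitness is the logarithm, base 2, of genotype enrichment over wild-type enrichment, computed from inverse-variance-weighted replicate averages.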"}
{"variant": "GACCAAUCUGCCCUCAGAGCUCGAGAACUUAUUCGGAUGCAGAGGAGGCAGGCUUCGGUGGCGCGAUAACGCCAACGUCCUCAACCUCCAAUGCAUCCCACCAGAUGAUGAUGCCUCAAGUGCCUUGGUUUUUUG", "note": "[A29U C31A G69A C104G G117C A121U]", "polymerase ribozyme fitness (log ratio)": -7.2}
{"variant": "GACCAAUCUGCCCUCAGAGCUCGAGAAGAUCUUCGGAUGCAGAGGAUGCAGGUUUCGGUGGCGCGAUAGCGCCAACGUCCUCAACCUCCAAUGCAUCCCACCACAUGAUGAUGCCUGAAGAGCCUUGGUUUUUUG", "note": "[C28G G47U C53U]", "polymerase ribozyme fitness (log ratio)": -4.48}
{"variant": "GACAAAUCUGCCCUCAGAGCUCGAGAACAUCUUCGGUUGCAGAGGAGGCAGGCUUCGGUGGCGCGAUAGCGCCAACGUCCUCAACCUCCAAUACAUCCCACCACAUGAUGAUGCCUGAAGAGCCUUGGUUUUUUG", "note": "[C4A A37U G93A]", "polymerase ribozyme fitness (log ratio)": -2.66}
{"variant": "GACAAAUCUGCCCUCAGAGCUCGAGAACAUCUUCGGAUGCAGAGGAGGCAGGCUUCGGUGGCGCGAUAGCGCCAACGUCCUCAACCUCCAAUGCAUCCCACCACAUGAUGAUGCCUGAAGAGCCUUGGUUUUUUU", "note": "[C4A G135U]", "polymerase ribozyme fitness (log ratio)": -2.46}
{"variant": "GACCAAUCUGCCCUCAGAGCUCGAGAACAUCUUCGGAUGCAGAGGAGGCAGGCUUCGGUGGCGCGAUACCGCCAACGUCCUCAACCUCCAAUGCAUCCCACCACACGAUGAUGCCUGAAGAGCCUUGGUUUUUUG", "note": "[G69C U106C]", "polymerase ribozyme fitness (log ratio)": -1.22}
{"variant": "GACCAAUCUGCCCUCAGAGCUCGAGAACAUCUUCGGAUGCAGAGGAGGCAGGCAUCGCUGGCGUGAUAGCGCCAACGUCCUCAACCUCCAAUGCAUCCCACCACAUGAUCAUGCCUGAAGAGCCUUGGUUUUUUG", "note": "[U54A G58C C64U G110C]", "polymerase ribozyme fitness (log ratio)": -5.03}
{"variant": "GACCAAUCUGGCCUCAGAGCUCGAGAACAUCUUCGGAUGCAGAGGAGGCACGCUUCGGUGGCGCGAUAGCGCCAACGUCCUCAGCCUCCAAUGCAUCCCACCACAUGAUGAUGCCUGAAGAGCCUUGGUUCUUUG", "note": "[C11G G51C A84G U131C]", "polymerase ribozyme fitness (log ratio)": -3.58}
{"variant": "GACCAAUCUGCCCUCAGAGCUCGAGACCAUCUUCGGAUGCAGAGGAGGCAGGCUCCGGUGGCGCGAUAGUGCCAACGUCCUCAACCUCCAAUGCAUCCCACCACAUGAUGAUGCCUGAAGAGCCUUGGGUUUUUG", "note": "[A27C U55C C70U U129G]", "polymerase ribozyme fitness (log ratio)": -4.99}
{"variant": "GACCAAUCUUCCCUCAGAGCUCGAGAACAUCUUCGGAUGCAGAGGAGGCAGGCUUCGGUGGCGCGAUAGCGCCAACGUCCUCAACCUCCAAUGCAUCCCACCACAUGAUGAUGCCUGAAGAGCUUUGGUUUUUUG", "note": "[G10U C124U]", "polymerase ribozyme fitness (log ratio)": 1.37}
{"variant": "GACCAUUCUGCCCUCAGAGCUCGAGAACAUCUUCGGAUGCAGAGGAGGCAGGCGUCGGUGGCGCGAUAGAGCCAACGUCCUCAACCUCCAAUGCAUCCCACCACAUGAUGAUGCCUGAAGAGCCUUGGUUUUUUG", "note": "[A6U U54G C70A]", "polymerase ribozyme fitness (log ratio)": -3.12}
{"variant": "GACCAAUCUGCCCUCAGAGCUCGAGAACAUCUUCGCAUGCACAGGACGCAGGGUUUGGUGUCGCGAUAGCGUCAACGUCCUCAACGUCCAAUGCAUCCCACCACAUGAUGAUGCCCGAAGAGCCUUGGUUUUUUG", "note": "[G36C G42C G47C C53G C56U G61U C72U C86G U116C]", "polymerase ribozyme fitness (log ratio)": -4.72}
{"variant": "GACCAAUCUGCUCUCAGAGCUCGAGAACAUCUUCGGAUGCAUAGGAGGCAGGCUUCGGUGGCGCGAUAGCGCCAACGUCCUCAACCUCCAAUGCAUCCCACCACAUGAUGAUGCCUGAAGAGCCUUGGUUUUUUG", "note": "[C12U G42U]", "polymerase ribozyme fitness (log ratio)": -0.819}
{"variant": "GACCAAUCUGCCCUCAGAGCUCGAGAACAUCUUCGGAUGCAGAGGAGACAGGCUUCUGUGGCGCGAUAGCGCCAACGUCCUCAACCUCCAAUGCCUCCCACCACAUGAUGAAGACUGAAGAGCCUUGGUUUUUUG", "note": "[G48A G57U A95C U112A C114A]", "polymerase ribozyme fitness (log ratio)": -3.34}
{"variant": "GAUCAAUCUGCCCUCAGAGCUCGAGAACAUCUUCGGAUGCAGAGGAGGCAGGCUUCGGUGGCGCGAUAGCGCCAACGUCCUCAAACUCCAAUGCAUCCCACCACAUGAUGAUGCCUAAAGAGCCUUGGUUUUUUG", "note": "[C3U C85A G117A]", "polymerase ribozyme fitness (log ratio)": -2.52}
{"variant": "GACCAAUCUGCCCUCAGAGCUCGAGAACAUCUUCGUAUGCAGAGGAGGCAGGGUUAGGUGGCGCGAUAGCGCCAACGUCCUCAACCUCCAAUGCAUCCCACCACAUGAUGAUGCCUGAAGAGCCUUGGUUUUUUG", "note": "[G36U C53G C56A]", "polymerase ribozyme fitness (log ratio)": -1.45}
{"variant": "GACCAAACUGCCCUCAGAGCUCGAGAACAUCUUCGGAUGCAGAGGAGGCAGGCUUCGGUGGCGCGAUAGCGCCAACGUCCUCAACCUCCAAUGCAUCCCACCACAUGAUGAUGGCUGAAGAGCCUUGGUUUUUUG", "note": "[U7A C114G]", "polymerase ribozyme fitness (log ratio)": -2.07}
{"variant": "GACCAAUCUGCUCUCAGAGCUCGAGAACAUCUUCGGAUGCAGAGGAGGCAGGCUUCGGUGGUGCGAUAGCGCCAACGUCCUCAACCUCCAACGCAUCCCACCACAUGAUGAUGCCUGAAGAGCCUUGGUUUUUUG", "note": "[C12U C62U U92C]", "polymerase ribozyme fitness (log ratio)": -1.06}
{"variant": "GACCAAUCUGCCCUCAGAGCUCGAGAACAUCUUCGGAUGCUGAGGAGGCAGGCUUCGGUGGCGCGAUAGCGCCAACGUCCUCAACCUCCAAUGCAUCCCACCACAUGAUGAUGCCUGAACAGCCUUGGUUUUUUG", "note": "[A41U G120C]", "polymerase ribozyme fitness (log ratio)": -0.366}
{"variant": "GACCAAUCUGCCCUCAGAGCUCGAGGACAUCUUCGGAUGCAGAGGAGAGAGGCUUCGGUGGCGCGAUAGCGCUAACGUCCUCAACCUCCAAUGCAUCCCACCACAUGAUGAUGCCUGAAGUGCCUUGGUUUUUUG", "note": "[A26G G48A C49G C73U A121U]", "polymerase ribozyme fitness (log ratio)": -0.344}
{"variant": "GACAAAUCUGCCCUCAGAGCUCGAGAACAUCUUCGGAUGCAGAGGAGGCAGGCUUCGGUGGCGCGAUAGCACCAACGUCCUCACCCUCCAAUGCAUCCCACCACAUGAUGAUGCCUUAAGAGCCUUGGUUUUUUG", "note": "[C4A G71A A84C G117U]", "polymerase ribozyme fitness (log ratio)": -6.14}
{"variant": "GACCAAUCUGCCCUCAGAGCUGGAGAACAUCUUCGGAUGCAGAGGAGGCAGUCUUCGGUGGCGCGAUAGCGCCAACGUCCUCAACCUCCAAUGCAUCCCACCACAUGAUGCUGCCUGAAGAGCCUUGGUUUUUUG", "note": "[C22G G52U A111C]", "polymerase ribozyme fitness (log ratio)": -3.81}
